Measurements from patent US20170008962A1 (Dana-Farber, published 2017).

T1: Ang-like-3 (human, UniProt Q9Y5C1 17-460)
T1 sequence (looked up): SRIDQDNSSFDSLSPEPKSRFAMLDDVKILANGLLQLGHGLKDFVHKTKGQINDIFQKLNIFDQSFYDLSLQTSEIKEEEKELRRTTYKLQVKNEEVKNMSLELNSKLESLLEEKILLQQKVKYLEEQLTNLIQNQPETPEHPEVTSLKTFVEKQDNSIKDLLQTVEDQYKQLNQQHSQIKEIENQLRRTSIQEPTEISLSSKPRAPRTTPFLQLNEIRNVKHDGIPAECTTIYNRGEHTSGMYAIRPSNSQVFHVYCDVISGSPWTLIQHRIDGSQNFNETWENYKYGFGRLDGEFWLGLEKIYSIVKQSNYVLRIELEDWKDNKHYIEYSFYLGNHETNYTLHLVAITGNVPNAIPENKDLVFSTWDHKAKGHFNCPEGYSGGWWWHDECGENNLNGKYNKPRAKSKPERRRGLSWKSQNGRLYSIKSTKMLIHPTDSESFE

T2: recombinant human angiopoietin-1 (human, UniProt Q15389 20-498)
T2 construct: also called Ang-1
T2 sequence (looked up): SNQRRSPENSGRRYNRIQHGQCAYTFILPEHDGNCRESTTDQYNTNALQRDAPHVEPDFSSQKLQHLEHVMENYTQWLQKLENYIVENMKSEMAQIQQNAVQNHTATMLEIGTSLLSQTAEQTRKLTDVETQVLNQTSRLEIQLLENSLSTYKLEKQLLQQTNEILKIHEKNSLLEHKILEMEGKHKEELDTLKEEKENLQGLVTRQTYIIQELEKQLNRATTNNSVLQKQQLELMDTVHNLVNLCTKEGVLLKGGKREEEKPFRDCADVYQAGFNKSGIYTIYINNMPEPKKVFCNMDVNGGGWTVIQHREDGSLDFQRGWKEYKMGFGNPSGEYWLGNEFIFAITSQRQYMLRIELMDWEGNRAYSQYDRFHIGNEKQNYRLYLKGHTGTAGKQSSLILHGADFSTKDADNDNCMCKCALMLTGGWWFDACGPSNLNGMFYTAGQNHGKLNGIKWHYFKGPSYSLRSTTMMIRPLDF

T3: recombinant human angiopoietin-2 (human, UniProt O15123 19-496)
T3 construct: also called Ang-2
T3 sequence (looked up): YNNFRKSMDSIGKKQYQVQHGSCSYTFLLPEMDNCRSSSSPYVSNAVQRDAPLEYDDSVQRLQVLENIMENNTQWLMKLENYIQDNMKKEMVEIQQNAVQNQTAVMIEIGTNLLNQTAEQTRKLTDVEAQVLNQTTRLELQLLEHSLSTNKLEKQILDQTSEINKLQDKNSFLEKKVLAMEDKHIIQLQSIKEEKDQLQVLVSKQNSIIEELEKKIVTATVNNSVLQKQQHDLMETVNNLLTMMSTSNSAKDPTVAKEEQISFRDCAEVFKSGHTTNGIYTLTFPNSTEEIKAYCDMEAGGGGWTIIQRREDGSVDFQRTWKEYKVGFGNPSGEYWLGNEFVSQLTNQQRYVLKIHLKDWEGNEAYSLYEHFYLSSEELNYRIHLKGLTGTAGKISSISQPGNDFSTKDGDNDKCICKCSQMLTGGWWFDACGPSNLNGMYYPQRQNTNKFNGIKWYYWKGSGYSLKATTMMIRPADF

T4: recombinant human angiopoietin-4 (human, UniProt Q9Y264 25-503)
T4 construct: also called Ang-4; Ang4
T4 sequence (looked up): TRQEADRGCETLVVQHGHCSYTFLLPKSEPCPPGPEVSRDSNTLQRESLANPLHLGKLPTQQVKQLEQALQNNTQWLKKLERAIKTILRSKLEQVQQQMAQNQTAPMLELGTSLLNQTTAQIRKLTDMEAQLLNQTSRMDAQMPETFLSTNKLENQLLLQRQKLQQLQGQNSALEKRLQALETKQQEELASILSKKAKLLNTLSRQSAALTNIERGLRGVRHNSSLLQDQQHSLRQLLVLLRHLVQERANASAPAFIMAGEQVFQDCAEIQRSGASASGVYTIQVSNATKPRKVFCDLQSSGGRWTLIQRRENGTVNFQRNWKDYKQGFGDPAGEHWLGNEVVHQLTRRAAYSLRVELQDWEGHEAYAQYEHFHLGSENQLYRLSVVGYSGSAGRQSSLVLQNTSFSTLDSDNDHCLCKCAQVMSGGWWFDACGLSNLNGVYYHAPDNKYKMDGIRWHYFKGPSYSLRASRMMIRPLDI

T5: soluble, recombinant MICB with a single BirA biotinylation site (human, UniProt Q29980 23-309)
T5 sequence (looked up): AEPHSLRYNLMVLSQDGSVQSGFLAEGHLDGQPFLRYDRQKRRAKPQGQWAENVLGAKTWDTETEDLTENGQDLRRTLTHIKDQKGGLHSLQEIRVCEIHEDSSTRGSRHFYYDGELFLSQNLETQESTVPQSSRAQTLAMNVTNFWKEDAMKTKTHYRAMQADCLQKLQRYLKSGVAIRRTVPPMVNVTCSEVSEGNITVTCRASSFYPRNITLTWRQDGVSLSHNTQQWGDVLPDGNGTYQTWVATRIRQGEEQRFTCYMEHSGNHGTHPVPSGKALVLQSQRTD

B1: antibody ID 4 (anti-angiopoietin-2 antibody) (antibody, V domains shown)
VH: EVQLVESGGGLVQPGGSVRLSCAASGFILSNFAMSWVRQAPGKGLDWVSGNFGGRENTYYADSVKGRFTISRDSSKSTLYLQMNNLRAEDTAVYYCARGDYHGSGAHFDYWGQGILVTVSS
VL: DIVMTQSPLSSPVILGQPASISCRSSQSLLHSDGNTYLSWLHQRPGQPPRLLIYQISNRFSGVPDRFSGSGTGTDFTLKISRVEAEDAGIYYCMQGTEFPRTFGQGTKVEIK
B2: antibody ID 2 (anti-angiopoietin-2 antibody) (antibody, V domains shown)
VH: EVQLVESGGGLVQPGGSLRLSCAASGFTFSSYAMSWVRQAPGKGLEWVSGIYWSGGSTYYADSVKGRFTISRDISKNTLYLQMNSLRADDTAVYYCARGDYYGSGAHFDYWGQGTLVTVSS
VL: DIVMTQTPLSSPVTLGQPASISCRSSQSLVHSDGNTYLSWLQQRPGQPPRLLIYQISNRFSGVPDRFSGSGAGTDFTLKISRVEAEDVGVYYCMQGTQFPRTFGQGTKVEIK
B3: anti-Ang2 Ab6 (antibody ID-10 of Table 1, anti-angiopoietin-2 antibody) (antibody, V domains shown)
VH: EVQLVESGGGLIQPGGSLRLSCAASGFLISSYFMSWVRQAPGKGPEWVSVIYSDGSTYYVDSVKGRFTISTDNSKNTLYLQMNSLRAEDTARYYCATRHLNYDGDHWGQGTLVTVSS
VL: DVVMTQSPLSLPVTLGQPASISCRSSQSLVHSDGNTYLNWFHQRPGQSPRRLIYKVSKRDSGVPDRFSGSGSGSDFTLKISRVEAEDVGIYYCMQGTHWPTFGQGTKVEIKR
notes: also called anti-Ang6 Ab2
B4: antibody ID 3 (anti-angiopoietin-2 antibody) (antibody, V domains shown)
VH: EVQLVESGGGLVQPGGSLRLSCAASGFTFSNNWMHWVRQAPGKGLEWISEIRSDGNFTRYADSMKGRFTISRDNAKSTLYLQMNSLRVEDTGLYYCARDYPYSIDYWGQGTLVTVSS
VL: DIVMTQTPLSSPVTLGQPASISCTSSQSLVHSNGNTYLSWLQQRPGQPPRLLIYEISKRVSGVPDRFSGSGAGTDFTLKISRVEAEDVGVYYCMQGKQLRTFGQGTKLEIK
B5: CM24002 Ab2 (anti-MICA antibody ID-6 of Table 1) (antibody, V domains shown)
VH: QVQLQESGPGLVEPSGTLSLTCTVSGGSISRSNWWSWVRQPPGEGLEWIGEIHHIGRSSYNPSLKSRVTMSVDKSQNQFSLRLTSVTAADTAVYYCAKNGYYAMDVWGQGTTVTVSS
VL: EIVLTQSPGTLSLSPGERATLSCRASQSVSSDFLAWYQQKPGQAPRLLIYATSFRATGISDRFSGSGSGTDFSLTINRLEPEDFAVYYCQHYRSSPPWYTFAQGTKLDMRRTVAAPSV
B6: CM33322 Ab11 (anti-MICA antibody ID-8 of Table 1) (antibody, V domains shown)
VH: QVQLQESGPGLVKPSENLSLTCTVSDASMSDYHWSWIRQAAGKGLEWIGRMYSTGSPYYKPSLKGRVTMSIDTSKNQFSLKLASVTAADTAIYYCASGQHIGGWVPPDFWGQGTLVTVSS
VL: DIVMTQTPLSSPVTLGQPASISCRSSEGLVYSDGDTYLSWFHQRPGQPPRLLIYKISNRFSGVPDRFSGSGAGTDFTLKISRVEAEDVGVYYCMQATHFPWTFGQGTKVEVKR
B7: antibody ID 5 (anti-angiopoietin-2 antibody) (antibody, V domains shown)
VH: EVQLVESGGGLIQPGGSLRLSCATSGFTFRTSSMSWVRRAPGKGLEWVSAIGAESHDTHYTDSAEGRFTISKDYSKNTVYLQMNGLRVDDTAIYYCAHHYYYGSRQKPKDWGDAFDMWGQGTMVSVSS
VL: DIQMTQSPSSVSASVGDRVTITCRASQDISTWLTWYQQRAGKAPNLLIYGASTLEDGVPSRFSGSGSGTDFTLTIDSLQPDDFATYYCQQSHSFPYTFGQGTQLGIS
B8: CM24002 Ab4 (anti-MICA antibody ID-7 of Table 1) (antibody, V domains shown)
VH: QVQLQESGPGLVKPSGTLSLTCAVSGASITNGAWWSWVRQPPGKGLEWIGEIYLNGNTNSNPSLKSRVIISVDKSKNHFSLTLNSVTAADTAVYYCAKNAAYNLEFWGQGALVTVSS
VL: EIVLTQSPGTLSLSPGERATLSCRASQTVSSPYVAWYQQKRGQAPRLLIYGASTRATGIPDRFSGSGSGTDFTLTISRLEPEDFAVYYCQQYDRSYYYTFGQGTKLEIK

How the values were obtained:
Ang-like-3 = biological target: T1, Ang-like-3; assay: ELISA, protein coated on plate, anti-human IgG-Europium
[1] = biological target: T2, recombinant human angiopoietin-1; assay: ELISA, angiopoietin coated at 4 µg/mL, antibody 20 µg/mL-0.16 µg/mL, anti-human IgG-Europium
[2] = biological target: T3, recombinant human angiopoietin-2; assay: as above
[3] = biological target: T4, recombinant human angiopoietin-4; assay: as above
[4] = biological target: T2, recombinant human angiopoietin-1; assay: ELISA, protein coated at 4 µg/ml, antibody at 20, 4, 0.8 and 0.16 µg/ml, europium conjugated anti-human IgG
[5] = biological target: T3, recombinant human angiopoietin-2; assay: as above
[6] = biological target: T4, recombinant human angiopoietin-4; assay: as above
[7] = biological target: T5, soluble, recombinant MICB with a single …; assay: cytometric bead assay, biotinylated protein on streptavidin beads, FITC anti-human IgG

| binding result (Ang-like-3) | binding result [1] | binding result [2] | binding result [3] | binding result [7] | also measured | Binder |
| --- | --- | --- | --- | --- | --- | --- |
| no binding (tested: 20 µg/mL-0.16 µg/mL) | binds | binds | binds | – | – | B1 |
| no binding (tested: 20 µg/mL-0.16 µg/mL) | binds | binds | binds | – | – | B2 |
| – | – | – | – | – | binding result [4]: binds; binding result [5]: binds; binding result [6]: binds | B3 |
| no binding (tested: 20 µg/mL-0.16 µg/mL) | binds | binds | binds | – | – | B4 |
| – | – | – | – | binds | – | B5 |
| – | – | – | – | binds | – | B6 |
| no binding (tested: 20 µg/mL-0.16 µg/mL) | binds | binds | binds | – | – | B7 |
| – | – | – | – | binds | – | B8 |
